Where two headings read alike, the source gives them in different places.
T1: human CD70 expressed on parental (WT) Jurkat cells (human, UniProt P32970 1-193)
T1 sequence: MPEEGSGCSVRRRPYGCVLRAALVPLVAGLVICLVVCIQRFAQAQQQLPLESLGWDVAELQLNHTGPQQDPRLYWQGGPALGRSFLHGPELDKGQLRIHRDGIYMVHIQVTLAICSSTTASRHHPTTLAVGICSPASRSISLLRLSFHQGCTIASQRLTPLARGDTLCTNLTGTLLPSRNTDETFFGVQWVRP

T2: recombinant biotinylated human CD70 protein (human, UniProt P32970 39-193, biotinylated (site not stated))
T2 construct: also called recombinant biotinylated hCD70 protein
T2 sequence: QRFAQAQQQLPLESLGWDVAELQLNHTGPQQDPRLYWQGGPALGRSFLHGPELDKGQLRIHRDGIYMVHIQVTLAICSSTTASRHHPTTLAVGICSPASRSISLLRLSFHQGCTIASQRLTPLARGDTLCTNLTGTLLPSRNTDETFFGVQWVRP


Legend:
[1] = target: T1, human CD70 expressed on parental (WT) …; assay: cell-based or functional assay
[2] = target: T2, recombinant biotinylated human CD70 …; assay: flow cytometry: CAR-transduced Jurkat cells incubated with recombinant biotinylated human CD70, streptavidin-PE; percent of cells binding
Experimental: (§1) On Day 5, transduced cells were stained with human anti-CD69 antibody conjugated to PE-Cy7 and acquired on a flow cytometer to obtain percentage of CD69+ population for each CAR. […] Activation ratios (WT activation/KO activation) and protein binding were used to rank CARs.
Table 7: Activation ratio and protein binding of phage CARs were determined in the Jurkat screen. Activation ratio was used for in vitro characterization of CARs. Activation ratio was determined by calculating the ratio of the percentage of CD69 expression on WT Jurkat cells transduced with CD70 CAR (WT) to that on CD70 knockout Jurkat cells transduced with CD70 CAR (KO). A higher activation ratio indicates target-dependent activation. […] Protein binding values indicate the percentage of CD3+ CAR T cells that bind to human CD70 protein.

[3] = target: T1, human CD70 expressed on parental (WT) …; assay: cell-based or functional assay; remark: listed apart in the source
[4] = target: T2, recombinant biotinylated human CD70 …; assay: flow cytometry: CAR-transduced Jurkat cells incubated with recombinant biotinylated human CD70, streptavidin-PE; percent of cells binding; remark: listed apart in the source
Experimental: as §1
Activation ratio and protein binding of hybridoma CARs were determined in the Jurkat screen and used for in vitro characterization of CARs. Activation ratio was determined by calculating the ratio of the percentage of CD69 expression on WT Jurkat cells transduced with CD70 CAR (WT) to that on CD70 knockout Jurkat cells transduced with CD70 CAR (KO). A higher activation ratio indicates target-dependent activation. […] Protein binding values indicate the percentage of CD3+ CAR T cells that bind to human CD70 protein.

Row | Binder | Activation ratio (WT/KO) [1] | Protein binding (%) [2] [%] | Activation ratio (WT/KO) [3] | Protein binding (%) [4] [%]
1 | P15D02 CD70-specific CAR (other, Chimeric antigen receptor on transduced Jurkat cells; the signal peptide is left out) EVQLVQSGAEVKKPGESLKISCKGSGYSFASYWIGWVRQMPGKGLEWMGVIYPGTSETRYSPSFQGQVTISADKSISTAYLQWSSLKASDTAMYYCAKGLSASASGYSFQYWGQGTLVTVSSGGGGSGGGGSGGGGSGGGGSELDIQMTQSPSSLSASVGDRVTITCRASQSIDTYLNWYQQKPGKAPKLLIYSASSLHSGVPSRFSGSGSGTDFTLTISSLQPEDFATYYCQQSYSTTAWTFGQGTKVEIKTTTPAPRPPTPAPTIASQPLSLRPEACRPAAGGAVHTRGLDFACDIYIWAPLAGTCGVLLLSLVITLYCKRGRKKLLYIFKQPFMRPVQTTQEEDGCSCRFPEEEEGGCELRVKFSRSADAPAYQQGQNQLYNELNLGRREEYDVLDKRRGRDPEMGGKPRRKNPQEGLYNELQKDKMAEAYSEIGMKGERRRGKGHDGLYQGLSTATKDTYDALHMQALPPR | 2.6 | 62 |  | 
2 | 40E3 CD70-specific CAR (other) QVQLQESGPGLVKPSETLSLTCTVSGGSISSYYWNWIRQPPGKGLEWIGYIYYSGSTNYNPSLKSRVTISVDTSKNQFSLKLRSVTAADTAVYYCARDIRTWGQGTLVTVSSGGGGSGGGGSGGGGSGGGGSDIQMTQSPSSLSASVGDRVTITCRASQGISNYLAWFQQKPGKAPKSLIYAASSLQSGVPSKFSGSGSGTDFTLTISSLQPEDFATYYCQQYNSYPLTFGGGTKVEIKTTTPAPRPPTPAPTIASQPLSLRPEACRPAAGGAVHTRGLDFACDIYIWAPLAGTCGVLLLSLVITLYCKRGRKKLLYIFKQPFMRPVQTTQEEDGCSCRFPEEEEGGCELRVKFSRSADAPAYQQGQNQLYNELNLGRREEYDVLDKRRGRDPEMGGKPRRKNPQEGLYNELQKDKMAEAYSEIGMKGERRRGKGHDGLYQGLSTATKDTYDALHMQALPPR |  |  | 2.09 | 
3 | P12F02 CD70-specific CAR (other, Chimeric antigen receptor on transduced Jurkat cells; the signal peptide is left out) EVQLLESGGGLVQPGGSLRLSCAASGFTFSSYAMSWVRQAPGKGLEWVSTISGTGGTTYYADSVKGRFTISRDNSKNTLYLQMNSLRAEDTAVYYCAKVRAGIDPTASDVWGQGTLVTVSSGGGGSGGGGSGGGGSGGGGSELQSVLTQPPSASGTPGQRVTISCSGSTSNIGRNYVYWYQQLPGTAPKLLIYRTNQRPSGVPDRFSGSKSGTSASLAISGLRSEDEADYYCAAWDDSLSGRVFGTGTKLTVLTTTPAPRPPTPAPTIASQPLSLRPEACRPAAGGAVHTRGLDFACDIYIWAPLAGTCGVLLLSLVITLYCKRGRKKLLYIFKQPFMRPVQTTQEEDGCSCRFPEEEEGGCELRVKFSRSADAPAYQQGQNQLYNELNLGRREEYDVLDKRRGRDPEMGGKPRRKNPQEGLYNELQKDKMAEAYSEIGMKGERRRGKGHDGLYQGLSTATKDTYDALHMQALPPR | 12 | 2.39 |  | 
4 | 17G6 CD70-specific CAR (other, Chimeric antigen receptor on transduced Jurkat cells; the signal peptide is left out) EVQLVESGGGLVQPGGSLRLSCVASGFTFSSYWMSWVRQAPGKGLEWVASIKQDGSEKYYVDSVKGRFTISRDNAKNSVYLQMNSLRAEDTGVYYCAREGVNWGWRLYWHFDLWGRGTLVTVSSGGGGSGGGGSGGGGSGGGGSDIVMTQSPDSLAVSLGERATINCKSSQSVLYSYNNKNYVAWYQQKPGQPPNLLIFWASTRESGVPDRFSGSGSGTDFTLTISSLQAEDVAVYYCQQYYSTLTFGGGTKVEIKTTTPAPRPPTPAPTIASQPLSLRPEACRPAAGGAVHTRGLDFACDIYIWAPLAGTCGVLLLSLVITLYCKRGRKKLLYIFKQPFMRPVQTTQEEDGCSCRFPEEEEGGCELRVKFSRSADAPAYQQGQNQLYNELNLGRREEYDVLDKRRGRDPEMGGKPRRKNPQEGLYNELQKDKMAEAYSEIGMKGERRRGKGHDGLYQGLSTATKDTYDALHMQALPPR |  |  | 6.84 | 37.6
5 | P13F04 CD70-specific CAR (other, Chimeric antigen receptor on transduced Jurkat cells; the signal peptide is left out) QVQLVQSGAEVKKPGSSVKVSCKASGGTFSSYAISWVRQAPGQGLEWMGEIIPIFGTASYAQKFQGRVTITADESTSTAYMELSSLRSEDTAVYYCARAGWDDSWFDYWGQGTLVTVSSGGGGSGGGGSGGGGSGGGGSELQSVLTQPPSASGTPGQRVTISCSGSNSNIGTNYVSWYQQLPGTAPKLLIYRSSRRPSGVPDRFSGSKSGTSASLAISGLRSEDEADYYCAAWDGSLSGHWVFGTGTKLTVLTTTPAPRPPTPAPTIASQPLSLRPEACRPAAGGAVHTRGLDFACDIYIWAPLAGTCGVLLLSLVITLYCKRGRKKLLYIFKQPFMRPVQTTQEEDGCSCRFPEEEEGGCELRVKFSRSADAPAYQQGQNQLYNELNLGRREEYDVLDKRRGRDPEMGGKPRRKNPQEGLYNELQKDKMAEAYSEIGMKGERRRGKGHDGLYQGLSTATKDTYDALHMQALPPR | 4.32 | 37.5 |  | 
6 | P16C05 CD70-specific CAR (other, Chimeric antigen receptor on transduced Jurkat cells; the signal peptide is left out) EVQLVQSGAEVKKPGESLKISCKGSGYSFTDYWIGWVRQMPGKGLEWMGMISPGGSTTIYRPSFQGQVTISADKSISTAYLQWSSLKASDTAMYYCAREMYTGGYGGSWYFDYWGQGTLVTVSSGGGGSGGGGSGGGGSGGGGSELDIQMTQSPSSLSASVGDRVTITCRASQSIGQSLNWYQQKPGKAPKLLIYGASSLQSGVPSRFSGSGSGTDFTLTISSLQPEDFATYYCQQSYSTPITFGQGTKVEIKTTTPAPRPPTPAPTIASQPLSLRPEACRPAAGGAVHTRGLDFACDIYIWAPLAGTCGVLLLSLVITLYCKRGRKKLLYIFKQPFMRPVQTTQEEDGCSCRFPEEEEGGCELRVKFSRSADAPAYQQGQNQLYNELNLGRREEYDVLDKRRGRDPEMGGKPRRKNPQEGLYNELQKDKMAEAYSEIGMKGERRRGKGHDGLYQGLSTATKDTYDALHMQALPPR | 2.26 | 70.8 |  | 
7 | 10H10 CD70-specific CAR (other, Chimeric antigen receptor on transduced Jurkat cells; the signal peptide is left out) EVQLVESGGGLVQPGGSLRLSCAVSGFTFSNHNIHWVRQAPGKGLEWISYISRSSSTIYYADSVKGRFTISRDNAKNSLYLQMNSLRDEDTAVYYCARDHAQWYGMDVWGQGTTVTVSSGGGGSGGGGSGGGGSGGGGSDIQMTQSPSSVSASVGDRVTITCRASQGISSWLAWYQQKPGKAPKVLIYAASSLQSGVPSRFSGSGSGTDFTLTISSLQPEDFATYYCQQAFSFPFTFGPGTKVDIKTTTPAPRPPTPAPTIASQPLSLRPEACRPAAGGAVHTRGLDFACDIYIWAPLAGTCGVLLLSLVITLYCKRGRKKLLYIFKQPFMRPVQTTQEEDGCSCRFPEEEEGGCELRVKFSRSADAPAYQQGQNQLYNELNLGRREEYDVLDKRRGRDPEMGGKPRRKNPQEGLYNELQKDKMAEAYSEIGMKGERRRGKGHDGLYQGLSTATKDTYDALHMQALPPR |  |  | 7.32 | 17.9
8 | P12G07 CD70-specific CAR (other, Chimeric antigen receptor on transduced Jurkat cells; the signal peptide is left out) EVQLLESGGGLVQPGGSLRLSCAASGFTFNNFAMSWVRQAPGKGLEWVSGISGSGDNTYYADSVKGRFTISRDNSKNTLYLQMNSLRAEDTAVYYCAKDRDIGLGWYSYYLDVWGQGTLVTVSSGGGGSGGGGSGGGGSGGGGSELQSVLTQPPSASGTPGQRVTISCSGSSSNIGSNYVYWYQQLPGTAPKPLIYMNNQRPSGVPDRFSGSKSGTSASLAISGLRSEDEADYYCAAWDDSLSAVVFGTGTKLTVLTTTPAPRPPTPAPTIASQPLSLRPEACRPAAGGAVHTRGLDFACDIYIWAPLAGTCGVLLLSLVITLYCKRGRKKLLYIFKQPFMRPVQTTQEEDGCSCRFPEEEEGGCELRVKFSRSADAPAYQQGQNQLYNELNLGRREEYDVLDKRRGRDPEMGGKPRRKNPQEGLYNELQKDKMAEAYSEIGMKGERRRGKGHDGLYQGLSTATKDTYDALHMQALPPR | 11.6 | 15.5 |  | 
9 | P12B09 CD70-specific CAR (other, Chimeric antigen receptor on transduced Jurkat cells; the signal peptide is left out) EVQLLESGGGLVQPGGSLRLSCAASGFTFSQYSMSWVRQAPGKGLEWVSAISGGGVSTYYADSVKGRFTISRDNSKNTLYLQMNSLRAEDTAVYYCASDISDSGGSHWYFDYWGQGTLVTVSSGGGGSGGGGSGGGGSGGGGSELDIQMTQSPSSLSASVGDRVTITCRASQYIGRYLNWYQQKRGKAPKLLIHGATSLASGVPSRFSGSGSGTDFTLTISSLQPEDFATYYCQQSYSTTSPTFGQGTKVEIKTTTPAPRPPTPAPTIASQPLSLRPEACRPAAGGAVHTRGLDFACDIYIWAPLAGTCGVLLLSLVITLYCKRGRKKLLYIFKQPFMRPVQTTQEEDGCSCRFPEEEEGGCELRVKFSRSADAPAYQQGQNQLYNELNLGRREEYDVLDKRRGRDPEMGGKPRRKNPQEGLYNELQKDKMAEAYSEIGMKGERRRGKGHDGLYQGLSTATKDTYDALHMQALPPR | 4.34 | 5.74 |  | 
